According to US20260193335A1 (ZOETIS SERVICES, published 2026):
Changes are numbered by the printed parent chain. Names and notes keep the numbering of the source.

B1: mAb3 (felinized anti-NGF antibody ZTS-768) S428A, feline IgG1a (antibody)
heavy: DVQLVESGGDLVKPGGSLRLTCVASGFTYSNYWMHWVRQAPGKGLQWVARIDPYGGGTKHNEKFKRRFTISRDNAKNTLYLQMNSLKTEDTATYYCVRSGYDYYFDVWGQGTLVTVSSASTTAPSVFPLAPSCGTTSGATVALACLVLGYFPEPVTVSWNSGALTSGVHTFPAVLQASGLYSLSSMVTVPSSRWLSDTFTCNVAHPPSNTKVDKTVRKTDHPPGPKPCDCPKCPPPEMLGGPSIFIFPPKPKDTLSISRTPEVTCLVVDLGPDDSDVQITWFVDNTQVYTAKTSPREEQFNSTYRVVSVLPILHQDWLKGKEFKCKVNSKSLPSPIERTISKAKGQPHEPQVYVLPPAQEELSRNKVSVTCLIKSFHPPDIAVEWEITGQPEPENNYRTTPPQLDSDGTYFVYSKLSVDRSHWQRGNTYTCSVAHEALHSHHTQKSLTQSPGK
light: EIQMTQSPSSLSASPGDRVTITCRASENIYSFLAWYQQKPGKVPKLLIYNANTLAEGVPSRFSGSGSGTDFTLTISSLEPEDAATYYCQHHFGTPFTFGSGTKLEIKRSDAQPSVFLFQPSLDELHTGSASIVCILNDFYPKEVNVKWKVDGVVQNKGIQESTTEQNSKDSTYSLSSTLTMSSTEYQSHEKFSCEVTHKSLASTLVKSFQRSECQRE
notes: also called mAb3 ID No. 89
B2: mAb3 (felinized anti-NGF antibody ZTS-768) S428F, feline IgG1a (antibody)
heavy: B1 heavy with A434F
light: B1 light
notes: also called mAb3 ID No. 93
B3: mAb3 (felinized anti-NGF antibody ZTS-768) S428N, feline IgG1a (antibody)
heavy: B1 heavy with A434N
light: B1 light
notes: also called mAb3 ID No. 100
B4: mAb3 (felinized anti-NGF antibody ZTS-768) S428L, feline IgG1a (antibody)
heavy: B1 heavy with A434L
light: B1 light
notes: also called mAb3 ID No. 98
B5: mAb3 (felinized anti-NGF antibody ZTS-768) S428V, feline IgG1a (antibody)
heavy: B1 heavy with A434V
light: B1 light
notes: also called mAb3 ID No. 105
B6: mAb3 (felinized anti-NGF antibody ZTS-768) S428T, feline IgG1a (antibody)
heavy: B1 heavy with A434T
light: B1 light
notes: also called mAb3 ID No. 104
B7: mAb3 (felinized anti-NGF antibody ZTS-768) S428L and S434P, feline IgG1a (antibody)
heavy: B1 heavy with A434L, S440P
light: B1 light
B8: mAb3 (felinized anti-NGF antibody ZTS-768) S428P, feline IgG1a (antibody)
heavy: B1 heavy with A434P
light: B1 light
notes: also called mAb3 ID No. 101
B9: mAb3 (felinized anti-NGF antibody ZTS-768) S428L and S434F, feline IgG1a (antibody)
heavy: B1 heavy with A434L, S440F
light: B1 light
notes: also called mAb3 ID No. 110
B10: mAb3 (felinized anti-NGF antibody ZTS-768) S428Y and S434H, feline IgG1a (antibody)
heavy: B1 heavy with A434Y, S440H
light: B1 light
notes: also called mAb3 ID No. 114
B11: mAb3 (felinized anti-NGF antibody ZTS-768) S428L and S434W, feline IgG1a (antibody)
heavy: B1 heavy with A434L, S440W
light: B1 light
notes: also called mAb3 ID No. 113
B12: mAb3 (felinized anti-NGF antibody ZTS-768) S428H, feline IgG1a (antibody)
heavy: B1 heavy with A434H
light: B1 light
notes: also called mAb3 ID No. 95
B13: mAb3 (felinized anti-NGF antibody ZTS-768) S428L and S434H, feline IgG1a (antibody)
heavy: B1 heavy with A434L, S440H
light: B1 light
notes: also called mAb3 ID No. 109
B14: mAb3 (felinized anti-NGF antibody ZTS-768) S428D, feline IgG1a (antibody)
heavy: B1 heavy with A434D
light: B1 light
notes: also called mAb3 ID No. 91
B15: mAb3 (felinized anti-NGF antibody ZTS-768) S428G, feline IgG1a (antibody)
heavy: B1 heavy with A434G
light: B1 light
notes: also called mAb3 ID No. 94
B16: mAb3 (felinized anti-NGF antibody ZTS-768) S428Y and S434P, feline IgG1a (antibody)
heavy: B1 heavy with A434Y, S440P
light: B1 light
B17: mAb3 (felinized anti-NGF antibody ZTS-768) S428Y, feline IgG1a (antibody)
heavy: B1 heavy with A434Y
light: B1 light
B18: mAb3 (felinized anti-NGF antibody ZTS-768) S428I, feline IgG1a (antibody)
heavy: B1 heavy with A434I
light: B1 light
notes: also called mAb3 ID No. 96
B19: mAb3 (felinized anti-NGF antibody ZTS-768) S428Y and S434W, feline IgG1a (antibody)
heavy: B1 heavy with A434Y, S440W
light: B1 light
B20: mAb3 (felinized anti-NGF antibody ZTS-768) S428W, feline IgG1a (antibody)
heavy: B1 heavy with A434W
light: B1 light
B21: mAb3 (felinized anti-NGF antibody ZTS-768) S428L and S434L, feline IgG1a (antibody)
heavy: B1 heavy with A434L, S440L
light: B1 light
notes: also called mAb3 ID No. 111
B22: mAb3 (felinized anti-NGF antibody ZTS-768) S428E, feline IgG1a (antibody)
heavy: B1 heavy with A434E
light: B1 light
notes: also called mAb3 ID No. 92
B23: mAb3 (felinized anti-NGF antibody ZTS-768) S428Q, feline IgG1a (antibody)
heavy: B1 heavy with A434Q
light: B1 light
B24: mAb3 (felinized anti-NGF antibody ZTS-768) S428C, feline IgG1a (antibody)
heavy: B1 heavy with A434C
light: B1 light
notes: also called mAb3 ID No. 90
B25: mAb3 (felinized anti-NGF antibody ZTS-768) S428R, feline IgG1a (antibody)
heavy: B1 heavy with A434R
light: B1 light
notes: also called mAb3 ID No. 103
B26: mAb3 (felinized anti-NGF antibody ZTS-768) S428K, feline IgG1a (antibody)
heavy: B1 heavy with A434K
light: B1 light
notes: also called mAb3 ID No. 97
B27: mAb3 (felinized anti-NGF antibody ZTS-768) S428Y and S434F, feline IgG1a (antibody)
heavy: B1 heavy with A434Y, S440F
light: B1 light
notes: also called mAb3 ID No. 115
B28: mAb3 (felinized anti-NGF antibody ZTS-768) S428Y and S434L, feline IgG1a (antibody)
heavy: B1 heavy with A434Y, S440L
light: B1 light
notes: also called mAb3 ID No. 116
B29: mAb3 (felinized anti-NGF antibody ZTS-768) S428M, feline IgG1a (antibody)
heavy: B1 heavy with A434M
light: B1 light
notes: also called mAb3 ID No. 99
B30: mAb4 (felinized anti-IL31 antibody ZTS-5864) S428A, feline IgG1a (antibody)
heavy: DVQLVESGGDLVKPGGSLRLTCVASGFTFSDYAMSWVRQAPGKGLQWVAGIDSVGSGTSYADSVKGRFTISRDNAKNTLYLQMNSLKTEDTATYYCASGFPGSFEHWGQGTLVTVSSASTTAPSVFPLAPSCGTTSGATVALACLVLGYFPEPVTVSWNSGALTSGVHTFPAVLQASGLYSLSSMVTVPSSRWLSDTFTCNVAHPPSNTKVDKTVRKTDHPPGPKPCDCPKCPPPEMLGGPSIFIFPPKPKDTLSISRTPEVTCLVVDLGPDDSDVQITWFVDNTQVYTAKTSPREEQFNSTYRVVSVLPILHQDWLKGKEFKCKVNSKSLPSPIERTISKAKGQPHEPQVYVLPPAQEELSRNKVSVTCLIKSFHPPDIAVEWEITGQPEPENNYRTTPPQLDSDGTYFVYSKLSVDRSHWQRGNTYTCSVAHEALHSHHTQKSLTQSPGK
VL: QSVLTQPSSVSGTLGQRITISCTGSSSNIGSGYVGWYQQVPGMGPKTVIYYNSDRPSGVPDRFSGSKSGSSGTLTITGLQAEDEADYYCSVYDRTFNAVFGGGT
notes: also called mAb4 ID No. 2
B31: mAb4 (felinized anti-IL31 antibody ZTS-5864) S428L and S434P, feline IgG1a (antibody)
heavy: B30 heavy with A433L, S439P
VL: B30 VL
notes: also called mAb4 ID No. 25
B32: mAb4 (felinized anti-IL31 antibody ZTS-5864) S428L and S434F, feline IgG1a (antibody)
heavy: B30 heavy with A433L, S439F
VL: B30 VL
notes: also called mAb4 ID No. 23
B33: mAb4 (felinized anti-IL31 antibody ZTS-5864) S428L and S434H, feline IgG1a (antibody)
heavy: B30 heavy with A433L, S439H
VL: B30 VL
notes: also called mAb4 ID No. 22
B34: mAb4 (felinized anti-IL31 antibody ZTS-5864) S428L and S434W, feline IgG1a (antibody)
heavy: B30 heavy with A433L, S439W
VL: B30 VL
notes: also called mAb4 ID No. 26
B35: mAb4 (felinized anti-IL31 antibody ZTS-5864) S428D, feline IgG1a (antibody)
heavy: B30 heavy with A433D
VL: B30 VL
notes: also called mAb4 ID No. 4
B36: mAb4 (felinized anti-IL31 antibody ZTS-5864) S428L and S434L, feline IgG1a (antibody)
heavy: B30 heavy with A433L, S439L
VL: B30 VL
notes: also called mAb4 ID No. 24
B37: mAb4 (felinized anti-IL31 antibody ZTS-5864) S428C, feline IgG1a (antibody)
heavy: B30 heavy with A433C
VL: B30 VL
notes: also called mAb4 ID No. 3

Target: T1, Feline FcRn (complex of FcRn-α subunit and β-microglobulin, C-terminal His tag) (feline, UniProt A0ABI7ZNY9 23-296; Q5MGS7 21-118)
T1 construct: treated here as one molecule
Test: SPR Biacore, biotin-FcRn on SA chip, pH 6
Description: Feline FcRn was isolated, prepared and mutant Fc IgGs were assayed against feline FcRn according to Strietzel et. al., discussed above. Standard PCR was used to amplify feline FcRn-α subunit and β-microglobulin. FcRn-α subunit and β-microglobulin were co-transfected into HEK 293 cells and the FcRn complex was purified by IMAC affinity purification via the c-terminal His tag. FcRn complex was biotin labeled through BirA enzymatic biotinylatoin reaction. KD's were measured by Biacore T200 (GE Healthcare, Pittsburgh, PA, USA) or Biacore 8K (Cytiva, Marlborough, MA, USA) using a SA sensor chip.
FcRn was captured on the surface of the sensor using a modified SA capture method. 10 mM MES; 150 mM NaCl; 0.005% Tween20; 0.5 mg/mL BSA; pH6 was used as capture, method running buffer and titrations. 1×HBS-P, 0.5 mg/mL BSA; pH7.4 was also used for method running buffer and titrations. Fc mutant IgGs were flowed over receptor surfaces and affinity was determined using T200 evaluation software or Biacore Insight Evaluation software. Blank runs containing buffer only were subtracted out from all runs. Flow cells were regenerated using 50 mM Tris pH8 or pH9. Runs were performed at 15° C.

Question: For B1, which Kd is on record?
Answer: 22.3 nM

Question: Which Kd does the source give for B2 here?
Answer: 6.75 nM

Question: How did the Kd turn out when B3 was run?
Answer: 11.2 nM

Question: B4 was tested. Which Kd did it give?
Answer: 15.4 nM

Question: Which Kd does the source give for B5 here?
Answer: 17.1 nM

Question: Which Kd does the source give for B6 here?
Answer: 25.8 nM

Question: For B7, which Kd is on record?
Answer: 18.8 nM

Question: Which Kd does the source give for B8 here?
Answer: 17.8 nM

Question: For B9, which Kd is on record?
Answer: 3.38 nM

Question: For B10, which Kd is on record?
Answer: 3.25 nM

Question: For B11, which Kd is on record?
Answer: 23.6 nM

Question: How did the Kd turn out when B12 was run?
Answer: 53.3 nM

Question: With B13 as the binder, how does the Kd read?
Answer: 13.1 nM

Question: How did the Kd turn out when B14 was run?
Answer: 56.8 nM

Question: Which Kd does the source give for B15 here?
Answer: 87.7 nM

Question: Which Kd does the source give for B16 here?
Answer: 16.6 nM

Question: Which Kd does the source give for B17 here?
Answer: 58.2 nM

Question: For B18, which Kd is on record?
Answer: 22.2 nM

Question: Which Kd does the source give for B19 here?
Answer: 0.812 nM

Question: For B20, which Kd is on record?
Answer: 18.5 nM

Question: B21 was tested. Which Kd did it give?
Answer: 0.312 nM

Question: For B22, which Kd is on record?
Answer: 57.4 nM

Question: With B23 as the binder, how does the Kd read?
Answer: 71.3 nM

Question: How did the Kd turn out when B24 was run?
Answer: 26.2 nM

Question: Which Kd does the source give for B25 here?
Answer: 27.3 nM

Question: B26 was tested. Which Kd did it give?
Answer: 22.2 nM

Question: With B27 as the binder, how does the Kd read?
Answer: 2.94 nM

Question: With B28 as the binder, how does the Kd read?
Answer: 34.3 nM

Question: Which Kd does the source give for B29 here?
Answer: 6.89 nM

Question: For B30, which Kd is on record?
Answer: 66.4 nM

Question: Which Kd does the source give for B31 here?
Answer: 2250 nM

Question: For B32, which Kd is on record?
Answer: 84.7 nM

Question: Which Kd does the source give for B33 here?
Answer: 17.7 nM

Question: Which Kd does the source give for B34 here?
Answer: 17.2 nM

Question: Which Kd does the source give for B35 here?
Answer: 190 nM

Question: For B36, which Kd is on record?
Answer: 97.2 nM

Question: How did the Kd turn out when B37 was run?
Answer: 29 nM
